According to paper PMC5861037:

Columns and labels:
[1] = biological target: DosR K182R K182R (Mycobacterium tuberculosis H37Rv) (UniProt P9WMF9); test: EMSA
[2] = biological target: DosR K182Q K182Q (Mycobacterium tuberculosis H37Rv) (UniProt P9WMF9); test: EMSA

TTGATGCCTCCTAATCGATGGAAACGGATGCCTTTGATCCGACCAGCCCATCGTGGCCAGGGCTAGGGACAGAAGTCCCCGAAGCGCGGGCCATTTGTCCGCGCCCGTCGGTGATCCACTTGGGGACCATTGACCCTGTTGTCTGCCA (double strand) [acr promoter fragment]
binding [1]: binds
binding [2]: binds more weakly
